Results as given in the supplement of paper PMC10567573.
± gives the standard deviation.

Test: protein stability index of a GFP-peptide fusion (GPS, HEK-293T) (PSI 1-6); higher = more stable
Conditions: c terminus: a fixed tail appended
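Also: 24-mer peptide tiles fused after GFP, lentivirally expressed, FACS-sorted into six equal bins by GFP/DsRed ratio, decoded by Illumina sequencing, PSI is the read-weighted mean bin number.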

Sequence	protein stability index (treatment: DMSO)	protein stability index (treatment: MLN4924 1 uM, 8 h)
HSGQVTILKLEQENCTLVTTFRGH [WDFY2]	2.35 ± 0.26	2.29 ± 0.28
HAACLKCAECSQYLDETCTCFVRD [ISL2]	4.67 ± 0.22	4.83 ± 0.23
YVRPERLSPISHGNTIALFFRSLL [TCF25]	2.59 ± 0.4	2.71 ± 0.42
VVKLENGEIETIARFGSGPCKTRD [APMAP]	3.77 ± 0.16	3.72 ± 0.31
KDTDLARVRRFQVVEVTKGILEHV [M1AP]	2.55 ± 0.47	2.86 ± 0.56
EAKAVGLISHVLEQNQEGDAAYRK [AUH]	5.22 ± 0.22	5.18 ± 0.28
CLTAGPEVAAQLPAVRQLLPCARV [ZSWIM9]	2.94 ± 0.21	2.97 ± 0.41
LRDHADSNIVIMLVGNKSDLRHLR [RAB11A]	2.36 ± 0.24	2.18 ± 0.38
SMEIYGSAVADKLDNSRSILKRRY [CTDNEP1]	3.28 ± 0.22	3.71 ± 0.41
VEKLKQMQEFFGLKVTGKPDAETL [MMP1]	3.63 ± 0.23	3.83 ± 0.16
NHMYSCRFSRQCVVDKDKRNQCRY [HNF4A]	2.61 ± 0.057	2.56 ± 0.074
DLGGSIYANLALSGLIEIQSYPLC [SLC22A15]	3.02 ± 0.72	2.63 ± 0.76
HAAQGGPLLCPGCQGQPQGKAVVS [ELOA2]	3.9 ± 0.36	4.09 ± 0.24
FYSQEWYARQHCPLKNPTFLDYVR [SOAT1]	2.4 ± 0.47	2.13 ± 0.25
SRVLLSAIEGIPGSDYVNANYIDG [PTPRD]	3.28 ± 0.26	3.73 ± 0.24
TEPLTHWYQVRCLFQSPLFAKAGD [CARM1]	2.11 ± 0.36	2.15 ± 0.61
EQDRIPEVHVPPSSAVSGVKEWFG [MIA2]	4.35 ± 0.099	4.46 ± 0.35
RQSVENDIHGLRKVIDDTNITRLQ [KRT18]	4.17 ± 0.22	4.13 ± 0.25
EAVTCGNTEVPARNLYAYIQKLTQ [PTPRD]	2.81 ± 0.19	2.96 ± 0.36
RNGHAKVVRLLLEHYRVQTQQTGT [FEM1B]	2.32 ± 0.21	2.3 ± 0.28
LGVDTAETSYLEMAAGSEPESVEA [KMT2E]	5.27 ± 0.32	5.5 ± 0.42
AYMGHLDVVALLINHGAEVTCKDK [ANKRD44]	2.23 ± 0.39	2.44 ± 0.19
PRRFTFYPCVLATEGFTSGRHYWE [TRIM39]	2.31 ± 0.51	2.19 ± 0.13

Sequence	protein stability index (treatment: DMSO)	protein stability index (treatment: MLN4924 1 uM, 8 h)
EDENIEVVYSKAASVPKVETVKSD [EIF5]	5.44 ± 0.41	5.4 ± 0.19
SQPGNAVIDKETIDLLAFTSVAEL [SDE2]	3.43 ± 0.3	3.46 ± 0.32
PEQSLKKTKTSEYPIIFVYYLRKG [SPANXN3]	2.75 ± 1.8	2.59 ± 0.37
NPKDCSENIEVKEGGLYFERRPVA [SPSB2]	4.68 ± 0.17	4.76 ± 0.058
LKFHKLVNVTIHFRLKTINLQSLI [MCOLN1]	3.17 ± 0.37	3.12 ± 0.31
DRVLRAMLKAEETCAPSVSYFKCV [CCND1]	2.29 ± 0.25	2.35 ± 0.4
IGVGLGFELQRLEFDLSPLNLDIG [AASDHPPT]	2.3 ± 0.55	2.29 ± 0.24
ATIFALSTMTSSVQIYNLSQNIQE [ATL3]	3.03 ± 0.76	3.27 ± 0.71
LPVETLGPASRMDPESERALQAPH [PBXIP1]	4.58 ± 0.43	4.84 ± 0.33
SVWQHIDCMGIDRQHIPDTYLCER [KMT2E]	2.83 ± 0.2	2.81 ± 0.4
EGCKSFFKRSVRRNLSYTCRANRN [NR2F2]	3.34 ± 0.36	3.52 ± 0.31
FHNCLIQLYCEKVQGLMKEYLLSF [VPS39]	2.96 ± 0.26	3.2 ± 0.7
SKYVKLNVGGALYYTTMQTLTKQD [KCTD10]	2.15 ± 0.25	2.44 ± 0.33
RGDSGRLGLGTRESHSCPQQVPMP [NEK8]	4.07 ± 0.18	4.19 ± 0.28
DIHVGLRGVPLLEWETEVEMDKLR [CLCN6]	3.98 ± 0.23	3.96 ± 0.41
TDLPECEQSSARQKASLLIQQALT [TCF25]	3.47 ± 0.36	3.66 ± 0.36
STWSDPSVNISLDNLLPGMQPSKP [CLINT1]	4.3 ± 0.12	4.25 ± 0.099
RGGMLSASAETLPAGFRVSTLGTL [PPFIA4]	3.26 ± 0.14	3.57 ± 0.49
FRPYFTIHDSEFKEYTTRTQAPPS [DENND6A]	2.55 ± 0.23	2.71 ± 0.27
TRLEQEIATYRSLLEGQDAKMAGI [KRT15]	3.7 ± 0.22	3.72 ± 0.18
STHELEKKELEENFEKLRLSLQDQ [MTUS2]	5.43 ± 0.14	5.33 ± 0.12
MHYCAVPPRGPLGQGAMFRLPTDS [NEUROD6]	2.97 ± 0.29	3.17 ± 0.38
PQVPPSQPLRPWAGGDVPHKTHQA [DYRK1B]	4.41 ± 0.32	4.63 ± 0.21

Sequence	protein stability index (treatment: DMSO)	protein stability index (treatment: MLN4924 1 uM, 8 h)
RDSESTRHDSETEDMLWDDLLHGP [PHTF1]	5.49 ± 0.31	5.4 ± 0.2
EVILLVVMAYDRYMAICKPLHELI [OR4A15]	3.26 ± 0.43	2.97 ± 0.44
NKTEVTPRLWTTCRDGEVLLRLSK [ACSBG2]	2.4 ± 0.22	2.37 ± 0.21
FYQAVRDLLPVWLLEDMRASEAFH [ANKRD9]	2.85 ± 0.47	2.59 ± 0.57
IKSKKKLLQIIDTTLLKCYLHTNV [VPS39]	3.04 ± 0.37	2.86 ± 0.52
ERVYSLQHLDPQGAQELLEFTIRD [INTS4]	3.74 ± 0.42	3.69 ± 0.31
SVKSKIGELEDESLNRACHQQNKI [CEP70]	4.63 ± 0.41	4.7 ± 0.25
QRDLSPTAEDAELSDFEECEETGE [FCHSD1]	5.55 ± 0.21	5.54 ± 0.21
FMHSRNLYILGNFMQLKCFSSQKL [PNLIPRP1]	3.11 ± 1.1	2.53 ± 0.74
AFEPEALGNLVEGMDFHRFYFENA [CAMK2D]	2.86 ± 0.44	2.78 ± 0.54
KEYEKALKYVRGLLQTEPQNNQAK [FIS1]	2.86 ± 0.14	3 ± 0.45
NYEKLSRGLRYYYDKNIIHKTAGK [ETS1]	2.69 ± 0.15	2.89 ± 0.43
MPPGLHHQRKYTQSFCGENIMMPM [ZNF207]	2.29 ± 0.6	2.27 ± 0.34
SQYQCENGVSGPSQDLLPPPNPYP [TBX5]	4.75 ± 0.16	4.64 ± 0.14
SRAILQRVQAAAFGPGQTLLSSVH [ALKBH7]	2.72 ± 0.14	2.65 ± 0.35
RIHVLPSLNPDGYEKAYEGGSELG [CPXM2]	3.93 ± 0.11	4.36 ± 0.36
DQFSALGLDPCLLEDELDKSVQGT [SLC6A17]	5.18 ± 0.14	5.19 ± 0.14
VVQGPDGRLELKPLLLRLPRICQR [FANCE]	2.35 ± 0.33	2.45 ± 0.15
EVKLLLSSETPIEGKNMSFVNDLT [APMAP]	3.35 ± 0.23	3.56 ± 0.13
WFLVPISSVICNDITAYLFGFFFG [CDS1]	2.75 ± 0.036	3.16 ± 1
FANGHTYHINSISVNSDCETYMSA [PPP2R2C]	2.68 ± 0.69	2.63 ± 0.23
ATTSASDSLKPEQLDIEEEGRPGA [TFE3]	5.5 ± 0.23	5.35 ± 0.12
GGGSYGKLFESVECYDPRTQQWTA [GAN]	3 ± 0.13	3.13 ± 0.29

Sequence	protein stability index (treatment: DMSO)	protein stability index (treatment: MLN4924 1 uM, 8 h)
HSEILKYFQSVTSNRWLMVKIFLI [STX5]	2.32 ± 0.36	2.4 ± 0.43
RYISMSVWTSPRRLVELAGQSLLK [PRAME]	2.89 ± 0.1	2.96 ± 1.2
WQLFLAHNIPLETIIPILQHLKYK [INTS3]	2.83 ± 0.44	2.63 ± 0.59
HECILPFVQVKGNFARLQTCISEL [M1AP]	2.21 ± 0.11	2.21 ± 0.13
TVGVYEAAKLLNVDPDNVVLCLLA [GADD45A]	2.26 ± 0.17	2.4 ± 0.22
NYGKILVEKNEHCIENNIDLQVNR [R3HDM1]	3.56 ± 0.33	3.75 ± 0.19
LLMTSGVVLCEGVKWLSFHSGYDF [CNOT7]	3.33 ± 0.37	2.9 ± 0.39
VSGDLTKEDIDLIDILWRQDIDLG [NFE2L1]	3.02 ± 0.78	3.58 ± 0.61
PLPFPGPFPAGPLAVAGGPRKTAA [ESRRA]	4.43 ± 0.17	4.25 ± 0.14
IVFPEKLNGSVLPGSGAPARLLCR [ADAMTS4]	2.87 ± 0.26	2.59 ± 0.4
VRYNRVGILRRILRTLRDFPAEER [ANKRD9]	2.4 ± 0.16	2.6 ± 0.56
LVDVRQEQLQGFNTRVRELAQAAG [DNAAF3]	3.67 ± 0.55	3.67 ± 0.29
PPGPKGDQGDEGKEGRPGIPGLPG [SCARA5]	5.69 ± 0.15	5.36 ± 0.41
GSIMTVWLSTAPTEPLTHWYQVRC [CARM1]	2.74 ± 0.99	2.84 ± 0.23
LVKKLQDSVLERWVNDPQRMDKRT [GOLPH3L]	2.69 ± 0.14	2.93 ± 0.29
LAGLTRPDVRPPLGRGLVGGQEEA [SEPHS2]	4.86 ± 0.094	4.92 ± 0.083
SRLLGAAAGQRSRPSTYYELLGVH [DNAJC4]	2.54 ± 0.57	2.52 ± 0.42
SKNLIYRDVKPENFLIGRQGNKKE [CSNK1G1]	4.26 ± 0.22	4.28 ± 0.18
AATPRTNSVISVCSSSNLAGNDDS [DLC1]	5.08 ± 0.3	5.17 ± 0.083
GKTKKDYQEASNLEQFVTRFLLKE [NECAB1]	2.97 ± 0.3	3.36 ± 0.37
